Assay in all cases: cell-based or functional assay
The target of test [1] is SM 10-8 variant AAV capsid (Adeno-associated virus 2 (isolate Srivastava/1982) (AAV-2)) (UniProt P03135).
The target of test [2] is wild-type AAV1 capsid (adeno-associated virus type 1 (AAV1)).
Test [3] concerns the target wild-type AAV2 capsid (adeno-associated virus type 2 (AAV2)) (UniProt P03135).
The target of test [4] is wild-type AAV8 capsid (adeno-associated virus type 8 (AAV8)).
Test [5] has as its target SM 100-10 variant AAV capsid (Adeno-associated virus 2 (isolate Srivastava/1982) (AAV-2)) (UniProt P03135).
In test [6] the target is SM 100-3 variant AAV capsid (Adeno-associated virus 2 (isolate Srivastava/1982) (AAV-2)) (UniProt P03135).
Test [7] deals with SM 10-2 variant AAV capsid (Adeno-associated virus 2 (isolate Srivastava/1982) (AAV-2)) (UniProt P03135).
In test [8] the target is AAV2 capsid variant γ4.3 (adeno-associated virus type 2 (AAV2)) (UniProt P03135).
Test [9] concerns the target AAV2 capsid variant 1.45 (adeno-associated virus type 2 (AAV2)) (UniProt P03135).

This note sets out measurements from patent US11807868.

For “Gamimune N, 10% Human IVIG (Bayer, Elkhart Ind.)”, the Fold Resistance Relative to AAV2 in [1] came out at 3.41 fold; in test [2], 1.76 fold; in [3], 1 fold; in [4], 6.11 fold; in [5] it was 4.39 fold; in test [6], 4.94 fold. The substance further displayed a Fold Resistance Relative to AAV2 in test [7] of 7.52 fold. Moreover, the Neutralizing IVIG concentration (IVIG required to reduce gene delivery efficiency to 50% of that in the absence of IVIG) is 0.051 mg/mL in test [1]; 0.026 mg/mL in [2]; 0.015 mg/mL in [3]; 0.092 mg/mL in test [4]; 0.066 mg/mL in test [5]; 0.074 mg/mL in test [6]. The substance further registered a Neutralizing IVIG concentration (IVIG required to reduce gene delivery efficiency to 50% of that in the absence of IVIG) in test [7] of 0.113 mg/mL. Further, the fold enhanced resistance to pooled human IVIg compared to wild-type AAV2 in [8] stood at 3.1 fold; in [9] it was 1.23 fold.
